B1: ranpirnase (protein, UniProt P22069 1-104, looked up)
Protein P-30: QDWLTFQKKHITNTRDVDCDNIMSTNLFHCKDKNTFIYSRPEPVKAICKGIIASKNVLTTSEFYLSDCNVTSRPCKYKLKKSTNKFCVTCENQAPVHFVGVGSC
notes: An RNase disclosed and claimed in U.S. Pat. No. 5,559,212; registered trademark ONCONASE

Legend:
HPV type 11 = assay: quantitative reverse transcriptase PCR (QRT-PCR) antiviral assay against HPV type 11 in A-431 cells; type: cell-based, type 11 human papillomavirus; details: HPV-11 in A-431 cells
Experimental: To evaluate the activity of the tested RNases against type 11 HPV infections, the following quantitative PCR assay was used:
Solutions of the tested RNases were prepared in cell culture medium without use of dimethyl sulfoxide (“DMSO”). DMSO is unnecessary because the tested RNases are water-soluble.
HPV is an DNA virus. Antiviral activity against HPV type 11 was evaluated using a quantitative reverse transcriptase PCR (QRT-PCR) assay. Initially, on Day 1, 1 million A-431 cells were placed in 6-well dishes in Dulbecco's Modified Eagle Medium (“DMEM”) supplemented with 10% fetal bovine serum (“FBS”). The cells were then incubated for two days at 37° C.
After this incubation period, on day 2 replicate aliquots of HPV-11 were added to each non-control well, representing a multiplicity of infection (“MOI”) of 150 particles per cell in DMEM containing 2.5% FBS.
One day later, i.e. on day 3, DMEM with 10% FBS was added to each cell culture well.
One day later, i.e. on day 4, the tested compounds were added to the non-control cell culture wells. Control wells received media alone, or the vehicle used to dilute the tested compounds. Cidofovir diluted to 300 ug/ml was used as a positive control. […]
Finally, one day later, on […], QRT-PCR was carried out to quantitate the proportion of viral E1^E4 transcripts and a cellular reference RNA for the TATA-binding protein (“TBP”). […]

cancer cells = details: because of enzymatic activity against RNA; cited from earlier work
[1] = cited from earlier work

Molecule | activity against type 11 HPV (as seen in FIG. 1; SI = CC50/EC50) (HPV type 11) | cytotoxicity to cancer cells (cancer cells) | toxicity and tolerability in humans [1]
Val11, Asn20, Arg103—Ranpirnase ['805 variant] | extraordinarily active | cytotoxic to certain cancer cells | 
B1 | extraordinarily active | cytotoxic to cancer cells | non-toxic and well-tolerated

Source: US8663964B2, “Methods of treating human papillomavirus” (Tamir Biotechnology, Inc., priority 2011, dated 2014)
